This note sets out measurements from paper PMC6792017 (The EMBO Journal, 2019).

The target of this test is T1, HA-tagged caspase-1 p10 plus p20 C285S active-site mutant (human, UniProt P29466 120-297; P29466 317-404, C285S).
T1 sequence (looked up) 1: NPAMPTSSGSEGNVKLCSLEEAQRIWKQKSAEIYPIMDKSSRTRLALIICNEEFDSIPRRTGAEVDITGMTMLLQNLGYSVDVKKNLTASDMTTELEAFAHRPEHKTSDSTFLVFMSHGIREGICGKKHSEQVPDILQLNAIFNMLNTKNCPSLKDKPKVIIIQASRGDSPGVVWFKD
T1 sequence (looked up) 2: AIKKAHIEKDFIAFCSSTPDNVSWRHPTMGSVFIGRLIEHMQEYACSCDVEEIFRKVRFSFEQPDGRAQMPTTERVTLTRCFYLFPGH
Kind of test: non-reducing SDS-PAGE with Western blot.

B1: active recombinant human PRDX4 (non-reduced) (enzyme, UniProt Q13162 38-271, looked up)
chain: WETEERPRTREEECHFYAGGQVYPGEASRVSVADHSLHLSKAKISKPAPYWEGTAVIDGEFKELKLTDYRGKYLVFFFYPLDFTFVCPTEIIAFGDRLEEFRSINTEVVACSVDSQFTHLAWINTPRRQGGLGPIRIPLLSDLTHQISKDYGVYLEDSGHTLRGLFIIDDKGILRQITLNDLPVGRSVDETLRLVQAFQYTDKHGEVCPAGWKPGSETIIPDPAGKLKYFDKLN
B1: the binding result is reported as “binds”.
